# US20090162336A1
# What was measured:
# [1] = target: taxol-stabilized microtubules made from PC tubulin; experiment: microtubule pelleting assay, gel densitometry, 30 µM polymerized tubulin
# [2] = target: taxol-stabilized microtubules made from PC tubulin; experiment: microtubule pelleting assay, after 35 kDal kinase
# [3] = target: taxol-stabilized microtubules made from PC tubulin; experiment: microtubule pelleting assay, after 35 kDal kinase, against unphosphorylated htau23
# [4] = target: taxol-stabilized microtubules made from PC tubulin; experiment: microtubule pelleting assay
# [5] = target: taxol-stabilized microtubules made from PC tubulin; experiment: microtubule pelleting assay, microtubules from 10 µM tubulin with 20 µM taxol
# [6] = target: taxol-stabilized microtubules made from PC tubulin; experiment: microtubule pelleting assay, brain extract phosphorylation
substance,measurement,setting,value
"bacterially expressed human tau isoform htau34, unphosphorylated (from UniProt P10636 1-412)",Kd,[1],1 to 2 µM
htau23 phosphorylated by the 35 kDal kinase (from UniProt P10636 1-352),Kd,[2],8.8 µM
same,stoichiometry n (tau/tubulin dimer) (tau/tubulin dimer),[2],0.21
same,reduction in stoichiometry upon phosphorylation (Dn) (tau/tubulin dimer),[3],0.28
htau34 phosphorylated with the brain extract kinase activity (24 hours) (from UniProt P10636 1-412),fold reduction in binding capacity against unphosphorylated htau34,[4],3 fold
htau23 mutant Ser262-Ala phosphorylated by the 35 kDal kinase (from UniProt P10636 1-352),Kd,[2],11.6 µM
same,stoichiometry n (tau/tubulin dimer) (tau/tubulin dimer),[2],0.44
same,reduction in stoichiometry upon phosphorylation (Dn) (tau/tubulin dimer),[3],0.05
htau34 phosphorylated for 90 min with the brain extract kinase activity (stage 1) (from UniProt P10636 1-412),fold decrease in stoichiometry upon phosphorylation,[4],3 fold
htau23 phosphorylated with GSK3 (from UniProt P10636 1-352),stoichiometry at saturation (tau per tubulin dimer) (per tubulin dimer),[5],0.6
"htau23 phosphorylated with the brain extract kinase activity (full, stage 3, 24 hours) (from UniProt P10636 1-352)",Dn (difference in stoichiometry upon phosphorylation) (tau/tubulin dimer),[6],0.33
same,Kd,[1],4.9 µM
same,stoichiometry n (tau/tubulin dimer) (tau/tubulin dimer),[1],0.16
htau23 mutant Ser262-Ala phosphorylated with brain extract (from UniProt P10636 1-352),Dn (difference in stoichiometry upon phosphorylation) (tau/tubulin dimer),[6],0.04
same,Kd,[1],5.3 µM
same,stoichiometry n (tau/tubulin dimer) (tau/tubulin dimer),[1],0.45
S404-A mutant of htau34 after 90 min of phosphorylation with the brain extract kinase activity (from UniProt P10636 1-412),fold decrease in stoichiometry upon phosphorylation,[4],2 fold
